Laboratory results: patent US20030023055

B1: FLAG®-tagged Atr-2 protein (73 kDa Atr-2 truncated protein encoded by pCIneoFLAGATR2) (protein)
chain: MLVAELRRVTVLWDELWLGVLLQQHMYVLRRIQQLEDEVKRVQNNNTLRKEEKIAIMREKHTALMKPIVFALEHVRSITAAPAETPHEKWFQDNYGDAIENALEKLKTPLNPAKPGSSWIPFKEIMLSLQQRAQKRASYILRLEEISPWLAAMTNTEIALPGEVSARDTVTIHSVGGTITILPTKTKPKKLLFLGSDGKSYPYLFKGLEDLHLDERIMQFLSIVNTMFATINRQETPRFHARHYSVTPLGTRSGLIQWVDGATPLFGLYKRWQQREAALQAQKAQDSYQTPQNPGIVPRPSELYYSKIGPALKTVGLSLDVSRRDWPLHVMKAVLEELMEATPPNLLAKELWSSCTTPDEWWRVTQSYARSTAVMSMVGYIIGLGDRHLDNVLIDMTTGEVVHIDYNVCFEKGKSLRVPEKVPFRMTQNIETALGVTGVEGVFRLSCEQVLHIMRRGRETLLTLLEAFVYDPLVDWTAGGEAGFAGAVYGGGGQQAESKQSKREMEREITRSLFSSRVAEIKVNWFKNRDEMLVVLPKLDGSLDEYLSLQEQLTDVEKLQGKLLEEIEFLEGAEGVDHPSHTLQHRYSEHTQLQTQQRAVQEAIQVKLNEFEQWITHYQAAFNNLEATQLASLLQEISTQMDLGPPSYVPA
- kinase activity (32P-ATP incorporation, P81 paper, Cerenkov radiation) (histone H1): did not phosphorylate PHAS-1 or histone H1
- kinase activity (32P-ATP incorporation, P81 paper, Cerenkov radiation): able to phosphorylate the Atr-2 protein itself
- kinase activity (32P-ATP incorporation, P81 paper, Cerenkov radiation) (PHAS-1): did not phosphorylate PHAS-1 or histone H1
- kinase activity (32P-ATP incorporation, P81 paper, Cerenkov radiation) (myelin basic protein): able to phosphorylate the Atr-2 protein itself and the exogenous myelin basic protein substrate
